Laboratory results from paper doi:10.1101/2025.11.16.688685.

How the values were obtained:
hRNMT WT [1] = target: T1, hRNMT WT (Homo sapiens, UniProt O43148 1-476); assay: pull-down
hRNMT 120-476 [2] = target: T2, hRNMT 120-476 (Homo sapiens, UniProt O43148 120-476); assay: pull-down
hRNMT 1-185 [3] = target: T3, hRNMT 1-185 (Homo sapiens, UniProt O43148 1-185); assay: pull-down
hRNMT WT;RAM 1-90 = hRNMT WT;RAM 1-90 (Homo sapiens;Homo sapiens?, UniProt O43148;Q9BTL3 1-476;1-90, |); assay: EMSA
hRNMT 120-476 [4] = target: T2, hRNMT 120-476; assay: EMSA
hRNMT WT [5] = target: T1, hRNMT WT; assay: EMSA
hRNMT 1-185 [6] = target: T3, hRNMT 1-185; assay: EMSA

Measured: binding result

T2 sequence (O43148 120-476): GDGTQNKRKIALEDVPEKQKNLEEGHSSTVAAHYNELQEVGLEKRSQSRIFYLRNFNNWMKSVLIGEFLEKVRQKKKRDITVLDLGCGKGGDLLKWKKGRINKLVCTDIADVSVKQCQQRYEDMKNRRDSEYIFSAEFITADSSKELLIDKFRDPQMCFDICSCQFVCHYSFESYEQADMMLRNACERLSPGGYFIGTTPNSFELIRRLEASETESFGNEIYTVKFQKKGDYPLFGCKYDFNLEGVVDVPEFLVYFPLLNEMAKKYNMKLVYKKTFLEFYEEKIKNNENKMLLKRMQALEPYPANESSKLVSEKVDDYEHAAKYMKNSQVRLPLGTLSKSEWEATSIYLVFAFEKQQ
T3 sequence (O43148 1-185): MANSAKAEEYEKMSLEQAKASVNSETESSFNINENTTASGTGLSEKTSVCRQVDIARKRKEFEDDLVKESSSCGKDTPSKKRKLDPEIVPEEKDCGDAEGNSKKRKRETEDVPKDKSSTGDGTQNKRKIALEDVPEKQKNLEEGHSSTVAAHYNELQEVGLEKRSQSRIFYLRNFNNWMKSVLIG
T1 sequence (O43148 whole entry): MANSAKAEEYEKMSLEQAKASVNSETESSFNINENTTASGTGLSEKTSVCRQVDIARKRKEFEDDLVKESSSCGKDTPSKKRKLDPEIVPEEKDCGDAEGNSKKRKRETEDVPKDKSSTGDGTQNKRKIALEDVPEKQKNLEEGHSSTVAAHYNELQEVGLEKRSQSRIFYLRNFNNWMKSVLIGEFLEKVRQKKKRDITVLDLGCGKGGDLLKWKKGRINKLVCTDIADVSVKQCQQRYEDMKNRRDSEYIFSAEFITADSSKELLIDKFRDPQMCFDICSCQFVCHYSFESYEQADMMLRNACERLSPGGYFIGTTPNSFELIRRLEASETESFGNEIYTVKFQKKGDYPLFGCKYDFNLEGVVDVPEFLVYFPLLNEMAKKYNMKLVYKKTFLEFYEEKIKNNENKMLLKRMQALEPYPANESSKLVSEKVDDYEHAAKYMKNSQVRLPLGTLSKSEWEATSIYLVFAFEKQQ
Chain of hRNMT WT;RAM 1-90 (O43148 whole entry, chain 1 of 2): as the sequence (O43148 whole entry) above
Chain of hRNMT WT;RAM 1-90 (Q9BTL3 1-90, chain 2 of 2): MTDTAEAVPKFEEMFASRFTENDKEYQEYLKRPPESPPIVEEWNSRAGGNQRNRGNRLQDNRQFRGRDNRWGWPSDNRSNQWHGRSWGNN

UGUGGGAGGGGCGGGUGUGGGUGC (structured_RNA) [NRAS rG4]
binds: hRNMT WT [1] | hRNMT 120-476 [2] | hRNMT 1-185 [3]

B1: pGEM rG4 RNA (structured_RNA)
RNA: GGGCGAAUUGGGCCCGACGUCGCAUGUGUGGGAGGGGGCGGGUGUGGGUGCGAA
binds: hRNMT WT;RAM 1-90 | hRNMT 120-476 [4] | hRNMT WT [5] | hRNMT 1-185 [6]

B2: pGEM RNA (ssRNA)
RNA: GGGCGAAUUGGGCCCGACGUCGCAUGCUCCCGGCCGCCAUGGCGGCCGCGGGAA
binds: hRNMT WT;RAM 1-90 | hRNMT 120-476 [4]
